Measurements reported in the DeepSol protein solubility set.

Assay: soluble on expression in E. coli; label from the status in PepcDB or PDB records

Sequence	soluble on expression in E. coli
MSTSQTKNVSIDTIKEFMYQVLLKVGSDEENARMVRDTLIAADLRGMDTHGIQRFKTVYIDRIKKGMINPTAKPSIIRETSTTCVLDGNNGFGHVNGTIGMKMAIEKAKKYGMGMVVVRNSTHFGIAGYYSLLAAQEGCIGICGTNARSSVAATFGDEPILGTNPLAIGIPSDEAFPYCFDGATSISPTGRFEKYVRMGKTVDKSWASMKGGKPIEDPKELLENYPKGKAYLHPLGGSDEVSGSHKGYCLSEFVEIMSSCLSIANFLNHIEEEKEKSGKFSLGHFFIAINVECFRDLNEFKKNVGDINRTLRNTDKLPGHDRIYTAGEKEYETEQKRRKFGDDLPLVTINEMKELSSFYNVPLPF	soluble
MSVEGLGKDFCGAIIPDNFFPIEKLRNYTQMGLIRDFAKGSAVIMPGEEITSMIFLVEGKIKLDIIFEDGSEKLLYYAGGNSLIGKLYPTGNNIYATAMEPTRTCWFSEKSLRTVFRTDEDMIFEIFKNYLTKVAYYARQVAEMNTYNPTIRILRLFYELCSSQGKRVGDTYEITMPLSQKSIGEITGVHHVTVSRVLACLKRENILDKKKNKIIVYNLGELKHLSEQTSYYSDPNSSSVDKLAAALDHH	soluble
MSVHESSNEINDEPMDTDSNIPESSGNDPSMEVDDEPESSDAADSFKRFERLLQKTENFSHCLSSGDAKLATGAPVDTKKRGRPSKKNGIDGDHRHRKTEQEEDEEMVADAIKSDDLVIFDKSPFYIENGEMRDYQVRGLNWLASLQHNKINGILADEMGLGKTLQTISMIGYMKHYKNKASPHLVIVPKSTLQNWANEFKKWCPSINAVVLIGDEAARNQVLRDVILPQKFDVCCTTYEMMLKVKTQLKKLNWRYIIIDEAHRIKNEKSKLSETVRELNSENRLLITGTPLQNNLHELWALLNFLLPDIFTSSDDFDSWFSNDAMSGNTDLVQRLHKVLQPFLLRRIKSDVEKSLLPKKEVKVYVGLSKMQREWYTKVLMKDIDIINGAGKVEKARLMNILMHLRKCVNHPYLFDGAEPGPPFTTDQHLVDNSGKMVVLDKLLMKFKEQGSRVLIFSQFSRMLDLLEDFCWWRHYEYCRLDGSTPHEDRSNAIEAYNAPDSKKFIFMLTTRAGGLGINLATADVVIIYDSDWNPQSDLQAMDRAHRIGQKKQVRVFRLITENTVDERIIEKAEAKLRLDNIVIQQGRMSEAQKTLGKGDMISMIRHGAEQVFAAKDSTISDDDIDTILEKAEVKTAELNEKMGKIDENNLRNMTFEDNAKFTVYQFEGENYKAKQADGMGHFWIEPPKRERKANYQVDLYYKEAMRAGNPTEKQSKAPRPKLPQVFDFQFYPRRLFELLDKEIYHYRKTIGYVAERPKDVPPKEAEKRQAEEQKLINNARPLTDKEQEEKAELLTQSVTDWTKREFQQFVRGNEKYGREDLESIAKEMERPLEEIQSYAKVFWERIEELQDSEKVLSQIEKGEARIQRKYAVKKALDAKIAKYKAPFQQLRISYGTNKGKTYTEEEDRFLVCETHRLGHDKENVFEELRQSVRMAPQFRFDWFLKSRTAMELQRRCNTLITLIEREMGEVVESKPVIVTAADKKKSVAKDLSKSSGTPTAKKVKATPK	not soluble
MSVIIVGGGMAGATLALAISRLSHGALPVHLIEATAPESHAHPGFDGRAIALAAGTCQQLARIGVWQSLADCATAITTVHVSDRGHAGFVTLAAEDYQLAALGQVVELHNVGQRLFALLRKAPGVMLHCPDRVANVARTQSHVEVTLESGEMLTGRVLIAADGTHSALATACGVDWQQEPYEQLAVIANVATSVAHEGRAFERFTQHGPLAMLPMSDGRCSLVWCHPLERREEVLSWSDEKFCRELQSAFGWRLGQITHAGKRSAYPLALTRAARPITHRTVLVGNAAQTLHPIAGQGFNLGMRDVMSLAETLTQAHERGEDIGDYGILCRYQQRRQSDREATIGVTDSLVHLFANRWAPLVVGRNIGLMTMELFTPARDVLAQRTLGWVARLEHHHHHH	soluble
MSVLDALWEDRDVRFDLSAQQMKTRPGEVLIDCLDSIEDTKGNNGDRGRLLVTNLRILWHSLALSRVNVSVGYNCILNITTRTANSKLRGQTEALYILTKCNSTRFEFIFTNLVPGSPRLFTSVMAVHRAYETSKMYRDFKLRSALIQNKQLRLLPQEHVYDKINGVWNLSSDQGNLGTFFITNVRIVWHANMNDSFNVSIPYLQIRSIKIRDSKFGLALVIESSQQSGGYVLGFKIDPVEKLQESVKEINSLHKVYSASPIFGVDYEMEEKPQPLEALTVEQIQDDVEIDSDGHTDAFVAYFADGNKQQDREPVFSEELGLAIEKLKDGFTLQGLWEVMS	soluble
MSVRLPLLLRQLGRQQLPSGPACRLRELCRSGSRSSSSGGGDPEGLRGRRLQDGQTFSSHGPGNPEAPGMDSIVRDVIHNSKEVLSLLQEKNPAFKPVLVVIQAGDDNLMKDMNQNLAKEAGLDITHICLPPDSGEDEIIDEILKINEDPRVHGLTLQISEDSLSNKVLNALKPEKDVDGVTDINLGKLVRGDAPECFVSPLAKAAVELVEKSGITLDGKKVLVVGAHGPLEAALQWLFQRKGFMTMSCPWAPPQLPDKLREADIVVLGSPKPEEIPAVWIPSGTTILNCFHDFLSGKLSGGSPGVPVDKLIAEESVSLLAAALRIQNMVSSGRRWLREQQHRRWRLHCLKLQPLSPVPSDIEISRGQTPKAVDVLAKEIGLLADEIEIYGKSKAKVQLSLLERLKDQTDGKYVLVAGITPTPLGEGKSTVTIGLVQALTAHLKVNSFACLRQPSQGPTFGVKGGAAGGGYAQVIPMEEFNLHLTGDIHAITAANNLLAAAIDTRILHESTQTDKALYNRLVPLVNGVREFSEIQLSRLKKLGIHKTDPSTLTEEEVRKFARLNIDPATITWQRVLDTNDRFLRKITIGQGSTEKGYSRQAQFDIAVASEIMAVLALTDSLTDMKERLGRMVVASDKDGQPVTAEDLGVTSALTVLMKDAIKPNLMQTLEGTPVFVHPGPFANIAHANSSVLTDKIALKFVGEEGFVVTEAGFGADIGMEKFFNIKCRASGLVPNVVVLVATVRALKMHVGGPSVTAGVPLKKEYTEENIQMVADGCCNLQKQIQIAQLFGVPVVVALNVFKTDTRAEIDLVCELAKRAGAFDAVPCYHWSAGGKGSVDLARAVREAANKRSRFQFLYDVQLPIVEKIRVIAQTVYGAKDIELSPEAQSKIDRYTQQGFGNLPICMAKTHLSLSHEPDKKGVPRDFTLPISDVRASIGAGFIYPLVGTMSTMPGLPTRPCFYDIDLDTETEQVKGLF	soluble
MSVVISGALTDGAGIPMSGYHIILKSRVNTPEVVMNTVADVMTGNDGEYCFHARTGKYGVYLKQDWRNEYNVGDIAVYEDSKPGTLNDFLIAPDEGDLKPDVVKRFEEMVAQAQQSAGAAAGNAQQTAQDVAAAAGYARAAEQAKNDIDAALTGTLKTANHLSETAAAGEKAQQKSRDNLGLKSAATMEAQSDIYDRTKGRLAIPGAFGFGCAFLPEDVIRFDTKSDFLAWVRNALPGEYSVAGPYGIIIPDTRFEGVLSIRWTDARPETTEPRYRAKSLTFYGINGPIYHTRYRYWPISRLTDWVKINITTEDIIYRIVASSVRNRWGDPDIGGLIIAAYQGEADGDKVIRLVRGQSYRGSRLGPVGISVPSTPTGTYIASPQFFITGCSEHSLPGSYCALSGVPDAHVSGAMPGLFIRTS	not soluble
MSWIYDAHIHLSDPEYKSDIDMILNYMDLLKIKACCVSMDIETSNETMALYEKSKNVLPFIGIHPEMAQKSSEPVYELIEKNNEIISGIGEIGLDRTYINSEDEWEIQKDVFSKQLSLAEKFNKPVSIHSRKTLSDIFEILPSYKIPGILLHWFDGNKSQLKTAMENEYFVSYGPLLVYANDKQVLLSKTDPSRLLVETDGPVRFSHCFEYKTTEIMFVPSVLFCASKILHTSYENLLTQIEDNSKKFLGI	soluble
MSYDICIIGSGAGASPIAHQLSKAGAKVLVLEKGPWLTEKEFFKDELTISIHDAYNPKLTDEQHVIEEEYFDENDKPFWQGEKTSDSGWSWWNGNVVGGSSNFMSGYFHRLKPIDFRLKSEFGAISGANVEDWPISYDELEPYYAKVEREVGVSGRVVEHPHQEPRSTDFPYPPIAELPMSSWIDKAAQKIGYHAIPVPRAILSKPAMGRRSCEYSGYCSSYGCASGAKGSGRAALLNNAVASGNCTIQANAKVYKIATDKQGEITGVHYYDKIGRKKSVTAKIYVVACQAVETSRLLLASTGEKFPQGLANNNGQVGKNLLFSGGGTGQGDFNYADLSDKQVGELKQVGPFINRALQDWYQIADKSFTGANAKGQAKGGTIDFLFHQNPIARARGTQWGSDQNGDDKLLWGEDLKQSLKTEFTSYKTLRFEVFNDWLPTDDCFVSLDNEVTDQWGDPVAKVRIGYHDHDLEVGEYLSKKAEKLLEALGAKNVSSSVSGYPSTNLMAGGCRFGNDPKTSVLNKTCQAHEVDNLYVTDGSFMPTGGSVPYTFTIYANAFRVADKIKAHWLTLKSLEHHHHHH	not soluble
MSYEKEFLKDFEDWVKTQIQVNQLAMATSQEVAQEDGDERAKDAFIRYESKLDAYEFLLGKFDNYKNGKAFHDIPDELFGARHY	soluble
MTAAEHGLHAPAYAWSHNGPFETFDHASIRRGYQVYREVCAACHSLDRVAWRTLVGVSHTNEEVRNMAEEFEYDDEPDEQGNPKKRPGKLSDYIPGPYPNEQAARAANQGALPPDLSLIVKARHGGCDYIFSLLTGYPDEPPAGVALPPGSNYNPYFPGGSIAMARVLFDDMVEYEDGTPATTSQMAKDVTTFLNWCAEPEHDERKRLGLKTVIILSSLYLLSIWVKKFKWAGIKTRKFVFNPPKPRK	soluble
MTAEVTAADAEVLLAQPRGFCAGVDRAIDIVERALELHGAPIYVRHEIVHNRYVVEDLRGKGAVFIDELDQAPAGAIVVFSAHGVSQAVRGEAEARGLRVFDATCPLVTKVHIEVARMRAAGREIVMIGHKGHPEVEGTLGQAQGGMYLVETVEDVAALQVSDPGNLAYVTQTTLSVDDAAAVAGALKARFPGIVEPKKSDICYATQNRQDAVKLLAPECDLVLVVGSTNSSNSNRLREVAERKGVAAYLIDGAHAIDPAWLQGRRSIGITAGASAPEVLVQQVVERVRELGAVSVRTMPGLEESVAFPLPKGLSRKIAQTESLEAAALEHHHHHH	not soluble
MTAHFRPAVYDLPRDGHTVFRWEHPPQQATVELERLQRKQSLAAAFRVFARLGFDMGGAGHITVRDPGRPDHFWVNPVGVYFGHVRVRDLLLVNPEGAVIEGEGALNLAAFAIHAALHEAHPEVVAAAHAHSLYGKAWSSLGRLLDPLTQDACAFYERHGLFDNFSGVVLEASEGVRIAAALAGRKALILQNHGLLTVGETVEAAVWRFIAMDNAAQTQLLAEAAGTPRPIPHEVARHTARQVGTEFGGWFSFQPYRERIVREEPDFLDLEHHHHHH	not soluble
MTAHLAAINGLRLKAECSNCGVRELCLSVGMSLTDTDRLSAIIPQPIKVKKGAALYHAGDPLQSLYAVRFGFFKTTISSQDGRDQLTGFQMSGELLGCDAISNDCHVCDAIALEDSEVCPIRFTHLERLSREMPSLQHNLNRALSKEIVRDHEMLLLLGNLNAEERMAAFLLNLSGRMFNRGYSATAFVLRMTREDIGSYLGLRLETICRAIANLRNLRIVSISGRQVEILDLNRLQALIHGCSYRAKSL	not soluble
MTAPHDVPDLTGSGEYLVPDVLQPGLTLVLVGTAPSGISARARAYYANPENKFWRTLHAVGLTPRQLVPQEYATLPQYGLGLTDVAKRHSGVDAALPGEAWRPDELRRKVEHYRPRIVAFTSKRGASETLGVPTGKLPYGPQPQPLDWPAETELWVLPSTSPLGHNHFRLEPWQALGDRVRELRGAAEAGNPSPETPVL	soluble
MTARDDETIAFYSGHATAYTSRGQAPDRPHLETFLARLRAGAKILELGCGGGQDSEYMLSAGFDVHPTDGTPDIAKAAQARLGIPVRTLLFENIEDAALYDAVWANACLLHVPRLALPGIIGRIHTALKPGGVFYASFKAGEVEGRDTFGRYYNYPSKAWLEETYGQFAWTEVEIEARQGSGYDKLPTDWLHVTATKA	soluble
